# Test results as given in article PMC4050191 (FEBS Open Bio, 2014).
# Assays:
# [1] = biological target: human centrin 1, full-length (human) (UniProt Q12798); assay: ITC
# [2] = biological target: CK2 (catalytic α and regulatory β subunits complex) (Homo sapiens, UniProt P67870+P68400); assay: In vitro phosphorylation by CK2, HPLC quantification; assay type: biochemical
# [3] = biological target: transducin β (Trd) 325-340 (UniProt P62873); assay: ITC, peptide titrated into centrin; conditions: reference: wild type C-HsCen1; sites T138
# [4] = after 5 h, without Ca2+ (Fig. 1A, B)
# Sequence of CK2 (catalytic α and regulatory β subunits complex) (P68400 whole entry): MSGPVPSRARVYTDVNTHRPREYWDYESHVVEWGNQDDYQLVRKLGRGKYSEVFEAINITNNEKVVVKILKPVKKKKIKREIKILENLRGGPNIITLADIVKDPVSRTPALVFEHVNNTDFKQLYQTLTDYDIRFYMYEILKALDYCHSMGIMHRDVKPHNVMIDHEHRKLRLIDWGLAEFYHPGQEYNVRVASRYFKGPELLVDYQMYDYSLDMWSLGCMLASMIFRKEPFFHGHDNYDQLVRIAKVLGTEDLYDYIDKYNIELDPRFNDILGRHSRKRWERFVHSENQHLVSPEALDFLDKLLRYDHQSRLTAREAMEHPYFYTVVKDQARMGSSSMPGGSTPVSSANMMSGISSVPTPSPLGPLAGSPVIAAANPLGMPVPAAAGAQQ
# Sequence of CK2 (catalytic α and regulatory β subunits complex) (P67870 whole entry partner): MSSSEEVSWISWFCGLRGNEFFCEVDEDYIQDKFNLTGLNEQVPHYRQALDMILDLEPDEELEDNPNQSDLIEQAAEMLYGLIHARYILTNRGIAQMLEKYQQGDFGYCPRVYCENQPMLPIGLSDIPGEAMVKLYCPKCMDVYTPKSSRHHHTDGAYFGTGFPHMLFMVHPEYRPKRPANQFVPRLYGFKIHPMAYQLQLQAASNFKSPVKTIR
substance,measurement,setting,value
"HsTrB, transducin β-derived peptide 325-340 (last WD repeat)",Ka,[1],170000 M⁻¹
same,dH,[1],-12.2 kcal/mol
"HsTrBW332L, transducin β peptide 325-340 W332L",Ka,[1],130000 M⁻¹
same,dH,[1],-10.6 kcal/mol
"C-HsCen2: C-terminal domain (M93-Y172) of human centrin 2, recombinant; here as CK2 substrate",protein phosphorylated by CK2,"[2]; after 3 h at 37 °C, EGTA, HPLC peak integration",45%
same,protein phosphorylated by CK2,"[2]; after 3 h at 37 °C, presence of Ca2+",15%
same,protein phosphorylated by CK2,[2]; [4],48%
same,protein phosphorylated by CK2,"[2]; after 48 h, presence of Ca2+",50%
C-HsCen2-K131N: K131N variant of the C-terminal domain of human centrin 2,increase in phosphorylation by the mutation versus wild type,[2]; after 5 h,12%
same,protein phosphorylated by CK2,[2]; [4],60%
C-HsCen2-S158D: S158D phosphomimetic variant of the C-terminal domain of human centrin 2,factor of reduction of the phosphorylation rate at T138,"[2]; C-HsCen2-S158D versus S158A variant, without Ca2+",1.36
same,factor of reduction of the phosphorylation rate at T138,"[2]; C-HsCen2-S158D, presence of Ca2+",2.1
C-HsCen1N131K: N131K variant of the C-terminal domain of human centrin 1,reduction of phosphorylation by addition of Ca2+,"[2]; CK2, 37 °C",40%
same,reduction of phosphorylation by the mutation versus wild type,[2]; after 5 h,30%
same,protein phosphorylated by CK2,[2]; [4],50%
"human centrin 1 (HsCen1) C-terminal domain, 93-172 (from UniProt Q12798) C-HsCen1 T138E",other: Ka,[3],weaker; reference 0.54 (0.3)
"human centrin 1 (HsCen1) C-terminal domain, 93-172 (from UniProt Q12798) C-HsCen1 T138D",other: Ka,[3],weaker; reference 0.54 (0.3)
